# Measurements: publication PMC7804152, “Structural basis for the multi-activity factor Rad5 in replication stress tolerance”
# T1: ScHIRAN (Saccharomyces cerevisiae, UniProt P32849 171-375)
# T1 sequence: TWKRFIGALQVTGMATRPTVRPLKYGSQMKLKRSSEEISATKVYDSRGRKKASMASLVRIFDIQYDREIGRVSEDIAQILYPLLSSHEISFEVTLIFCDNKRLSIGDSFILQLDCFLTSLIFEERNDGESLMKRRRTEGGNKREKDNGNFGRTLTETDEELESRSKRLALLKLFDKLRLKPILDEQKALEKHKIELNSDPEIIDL
# T2: KlHIRAN (Kluyveromyces lactis, UniProt Q6CJM4 174-341)
# T2 sequence: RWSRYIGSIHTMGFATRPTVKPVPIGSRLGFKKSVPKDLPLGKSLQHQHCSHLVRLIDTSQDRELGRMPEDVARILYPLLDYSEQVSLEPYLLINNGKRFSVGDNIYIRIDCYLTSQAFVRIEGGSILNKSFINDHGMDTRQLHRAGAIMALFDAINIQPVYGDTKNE
# T3: ScRad5 (Saccharomyces cerevisiae, UniProt P32849 1-1169)
# T3 sequence: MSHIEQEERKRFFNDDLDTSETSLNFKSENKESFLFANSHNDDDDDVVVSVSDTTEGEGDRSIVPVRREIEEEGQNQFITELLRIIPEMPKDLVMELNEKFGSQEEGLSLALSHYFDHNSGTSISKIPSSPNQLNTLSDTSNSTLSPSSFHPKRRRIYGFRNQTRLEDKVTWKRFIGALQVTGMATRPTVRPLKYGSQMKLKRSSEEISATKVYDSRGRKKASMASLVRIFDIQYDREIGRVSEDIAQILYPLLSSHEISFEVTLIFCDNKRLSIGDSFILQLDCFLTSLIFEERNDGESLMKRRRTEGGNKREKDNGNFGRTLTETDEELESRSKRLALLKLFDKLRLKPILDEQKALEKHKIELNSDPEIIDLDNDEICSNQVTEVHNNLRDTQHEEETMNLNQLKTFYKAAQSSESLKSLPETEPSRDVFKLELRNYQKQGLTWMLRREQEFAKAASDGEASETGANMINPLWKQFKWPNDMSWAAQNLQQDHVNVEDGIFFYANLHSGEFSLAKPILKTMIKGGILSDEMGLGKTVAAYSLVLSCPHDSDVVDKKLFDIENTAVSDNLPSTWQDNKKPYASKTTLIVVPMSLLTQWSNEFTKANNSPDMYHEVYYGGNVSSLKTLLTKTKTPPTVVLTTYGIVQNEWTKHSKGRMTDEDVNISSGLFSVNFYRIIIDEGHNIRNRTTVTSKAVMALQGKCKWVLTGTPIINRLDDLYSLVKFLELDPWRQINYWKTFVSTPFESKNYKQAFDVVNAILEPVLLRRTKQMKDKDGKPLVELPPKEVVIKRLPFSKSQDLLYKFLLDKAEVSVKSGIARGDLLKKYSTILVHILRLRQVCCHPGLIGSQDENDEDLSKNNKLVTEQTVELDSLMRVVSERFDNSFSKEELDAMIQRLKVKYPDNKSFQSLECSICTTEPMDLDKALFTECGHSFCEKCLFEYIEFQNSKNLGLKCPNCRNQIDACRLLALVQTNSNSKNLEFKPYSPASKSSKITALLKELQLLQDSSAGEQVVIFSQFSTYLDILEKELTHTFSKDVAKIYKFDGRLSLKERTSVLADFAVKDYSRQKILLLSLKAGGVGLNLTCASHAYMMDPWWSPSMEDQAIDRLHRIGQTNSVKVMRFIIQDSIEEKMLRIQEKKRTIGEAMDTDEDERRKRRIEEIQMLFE
# T4: HLTF (Homo sapiens, UniProt Q14527 25-1009)
# T4 sequence: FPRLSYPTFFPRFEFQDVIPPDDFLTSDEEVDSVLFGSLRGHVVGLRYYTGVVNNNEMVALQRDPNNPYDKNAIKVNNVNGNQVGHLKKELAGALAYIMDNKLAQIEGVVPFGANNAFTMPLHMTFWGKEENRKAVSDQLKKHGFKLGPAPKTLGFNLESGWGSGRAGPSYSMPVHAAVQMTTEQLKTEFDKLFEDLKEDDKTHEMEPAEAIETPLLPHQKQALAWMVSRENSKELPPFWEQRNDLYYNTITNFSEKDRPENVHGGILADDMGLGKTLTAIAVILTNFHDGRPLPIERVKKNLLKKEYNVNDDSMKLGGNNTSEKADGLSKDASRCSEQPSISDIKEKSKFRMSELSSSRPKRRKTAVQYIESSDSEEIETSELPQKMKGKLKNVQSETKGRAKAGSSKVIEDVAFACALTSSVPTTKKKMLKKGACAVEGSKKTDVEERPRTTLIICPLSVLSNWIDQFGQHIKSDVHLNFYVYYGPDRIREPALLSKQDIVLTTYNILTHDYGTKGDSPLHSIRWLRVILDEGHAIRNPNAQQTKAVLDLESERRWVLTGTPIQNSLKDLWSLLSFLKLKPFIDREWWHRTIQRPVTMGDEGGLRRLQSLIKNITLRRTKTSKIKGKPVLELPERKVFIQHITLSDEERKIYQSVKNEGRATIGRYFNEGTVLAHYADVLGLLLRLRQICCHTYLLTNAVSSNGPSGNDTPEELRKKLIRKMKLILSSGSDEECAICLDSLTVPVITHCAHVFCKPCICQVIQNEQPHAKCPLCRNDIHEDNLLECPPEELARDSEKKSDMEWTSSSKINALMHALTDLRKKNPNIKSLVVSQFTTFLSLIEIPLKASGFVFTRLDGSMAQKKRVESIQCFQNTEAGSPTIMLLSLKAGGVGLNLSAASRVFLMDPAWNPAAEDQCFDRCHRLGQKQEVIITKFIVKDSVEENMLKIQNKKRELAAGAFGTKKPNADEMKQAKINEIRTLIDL
# T5: KlRad5 (Kluyveromyces lactis, UniProt Q6CJM4 163-1114)
# T5 sequence: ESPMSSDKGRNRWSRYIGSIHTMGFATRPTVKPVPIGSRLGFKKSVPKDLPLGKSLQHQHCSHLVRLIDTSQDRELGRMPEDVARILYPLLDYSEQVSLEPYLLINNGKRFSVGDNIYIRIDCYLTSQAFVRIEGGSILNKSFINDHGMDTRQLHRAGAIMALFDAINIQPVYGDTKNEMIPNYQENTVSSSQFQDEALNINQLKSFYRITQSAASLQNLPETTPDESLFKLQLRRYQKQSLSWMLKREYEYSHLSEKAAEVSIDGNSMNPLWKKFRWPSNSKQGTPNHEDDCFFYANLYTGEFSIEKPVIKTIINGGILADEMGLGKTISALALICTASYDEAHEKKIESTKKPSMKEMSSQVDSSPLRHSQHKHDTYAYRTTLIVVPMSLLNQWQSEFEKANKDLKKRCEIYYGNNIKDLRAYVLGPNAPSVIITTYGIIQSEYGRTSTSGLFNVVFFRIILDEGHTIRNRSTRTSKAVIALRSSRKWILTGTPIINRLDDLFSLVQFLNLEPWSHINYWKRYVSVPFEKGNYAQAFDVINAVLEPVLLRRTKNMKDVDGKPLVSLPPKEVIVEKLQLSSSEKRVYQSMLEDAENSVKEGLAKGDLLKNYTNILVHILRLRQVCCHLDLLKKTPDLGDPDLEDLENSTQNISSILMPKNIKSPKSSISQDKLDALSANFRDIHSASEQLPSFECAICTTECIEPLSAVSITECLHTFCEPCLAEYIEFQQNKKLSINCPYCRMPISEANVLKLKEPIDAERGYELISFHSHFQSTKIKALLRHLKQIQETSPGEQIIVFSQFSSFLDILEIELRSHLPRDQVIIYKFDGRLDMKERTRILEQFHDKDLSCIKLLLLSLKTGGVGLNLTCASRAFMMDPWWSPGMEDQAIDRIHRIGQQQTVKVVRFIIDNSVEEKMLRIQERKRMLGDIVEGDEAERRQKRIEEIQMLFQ
# B1: dT10, 3'-FAM (ssDNA)
# DNA: TTTTTTTTTT
# B2: dT25, 3'-biotin (ssDNA)
# DNA: TTTTTTTTTTTTTTTTTTTTTTTTT
# B3: dT25, 5'-biotin (ssDNA)
# DNA: TTTTTTTTTTTTTTTTTTTTTTTTT
# Columns and labels:
# [1] = target: T1, ScHIRAN; experiment: EMSA; no preference for free 3'-OH; FP: 20 mM Tris pH 7.5, 50 mM (dsDNA, KlHIRAN) or 70 mM (ssDNA) NaCl, 2 mM MgCl2, 1 nM DNA, room temp; EMSA: 20 mM Tris pH 7.5, 100 mM KCl, 0.5 mM DTT, 3% glycerol, 2 mM MgCl2, 250 ug/mL BSA, 4 C; pull-down: 20 mM Tris pH 7.5, 50 mM NaCl, 4 C; conditions: protein: recombinant; tags: intein-CBD cleaved off; label: 3'-FAM
# [2] = target: T2, KlHIRAN; experiment: as above; conditions: protein: recombinant; tags: intein-CBD cleaved off; label: 3'-FAM
# [3] = target: T3, ScRad5; experiment: pull-down; similar to 5'-biotin; FP: 20 mM Tris pH 7.5, 50 mM (dsDNA, KlHIRAN) or 70 mM (ssDNA) NaCl, 2 mM MgCl2, 1 nM DNA, room temp; EMSA: 20 mM Tris pH 7.5, 100 mM KCl, 0.5 mM DTT, 3% glycerol, 2 mM MgCl2, 250 ug/mL BSA, 4 C; pull-down: 20 mM Tris pH 7.5, 50 mM NaCl, 4 C; conditions: protein: recombinant; tags: N-terminal FLAG; label: 3'-biotin
# [4] = target: T4, HLTF; experiment: pull-down; lower salt; FP: 20 mM Tris pH 7.5, 50 mM (dsDNA, KlHIRAN) or 70 mM (ssDNA) NaCl, 2 mM MgCl2, 1 nM DNA, room temp; EMSA: 20 mM Tris pH 7.5, 100 mM KCl, 0.5 mM DTT, 3% glycerol, 2 mM MgCl2, 250 ug/mL BSA, 4 C; pull-down: 20 mM Tris pH 7.5, 50 mM NaCl, 4 C; conditions: protein: recombinant; tags: His (pET28a); label: 3'-biotin
# [5] = target: T5, KlRad5; experiment: pull-down; similar to 5'-biotin at all salt concentrations; FP: 20 mM Tris pH 7.5, 50 mM (dsDNA, KlHIRAN) or 70 mM (ssDNA) NaCl, 2 mM MgCl2, 1 nM DNA, room temp; EMSA: 20 mM Tris pH 7.5, 100 mM KCl, 0.5 mM DTT, 3% glycerol, 2 mM MgCl2, 250 ug/mL BSA, 4 C; pull-down: 20 mM Tris pH 7.5, 50 mM NaCl, 4 C; conditions: protein: recombinant; tags: none; label: 3'-biotin
# [6] = target: T3, ScRad5; experiment: pull-down; FP: 20 mM Tris pH 7.5, 50 mM (dsDNA, KlHIRAN) or 70 mM (ssDNA) NaCl, 2 mM MgCl2, 1 nM DNA, room temp; EMSA: 20 mM Tris pH 7.5, 100 mM KCl, 0.5 mM DTT, 3% glycerol, 2 mM MgCl2, 250 ug/mL BSA, 4 C; pull-down: 20 mM Tris pH 7.5, 50 mM NaCl, 4 C; conditions: protein: recombinant; tags: N-terminal FLAG; label: 5'-biotin
# [7] = target: T4, HLTF; experiment: pull-down; 100 mM salt; FP: 20 mM Tris pH 7.5, 50 mM (dsDNA, KlHIRAN) or 70 mM (ssDNA) NaCl, 2 mM MgCl2, 1 nM DNA, room temp; EMSA: 20 mM Tris pH 7.5, 100 mM KCl, 0.5 mM DTT, 3% glycerol, 2 mM MgCl2, 250 ug/mL BSA, 4 C; pull-down: 20 mM Tris pH 7.5, 50 mM NaCl, 4 C; conditions: protein: recombinant; tags: His (pET28a); label: 5'-biotin
# [8] = target: T5, KlRad5; experiment: pull-down; suppressed by SSB; all salt concentrations tested; FP: 20 mM Tris pH 7.5, 50 mM (dsDNA, KlHIRAN) or 70 mM (ssDNA) NaCl, 2 mM MgCl2, 1 nM DNA, room temp; EMSA: 20 mM Tris pH 7.5, 100 mM KCl, 0.5 mM DTT, 3% glycerol, 2 mM MgCl2, 250 ug/mL BSA, 4 C; pull-down: 20 mM Tris pH 7.5, 50 mM NaCl, 4 C; conditions: protein: recombinant; tags: none; label: 5'-biotin
binder,measurement,setting,value
B1,binding result,[1],binds
same,binding result,[2],binds
B2,binding result,[3],binds
same,binding result,[4],binds
same,binding result,[5],binds
B3,binding result,[6],binds
same,binding result,[7],binds
same,binding result,[8],binds
